Laboratory results published in US20210188948A1.

Columns and labels:
Assay in all cases: cell-based or functional assay
[1] = target: West Nile virus (WNV) reporter virus particles (RVPs) (West Nile virus)
[2] = target: DENV1 reporter virus particles (RVPs) (Dengue virus serotype 1)
[3] = target: DENV4 reporter virus particles (RVPs) (Dengue virus serotype 4)
[4] = target: Zika virus (ZIKV) reporter virus particles (RVPs) (Zika virus)
[5] = target: DENV3 reporter virus particles (RVPs) (Dengue virus serotype 3)

| Substance | percent neutralization [1] [%] | IC50 (neutralization) [2] [µg/mL] | percent neutralization [2] [%] | IC50 (neutralization) [3] [µg/mL] | percent neutralization [3] [%] | IC50 (neutralization) [4] [µg/mL] | percent neutralization [4] [%] | IC50 (neutralization) [5] [µg/mL] | percent neutralization [5] [%] | IC50 (neutralization) [1] [µg/mL] |
| --- | --- | --- | --- | --- | --- | --- | --- | --- | --- | --- |
| monoclonal antibody C10 | -195 | 0.352 | 52 | 0.038 | 98 | 0.038 | 99 | 0.753 | -95 | – |
| WNV-specific mAb CR4354 (antibody) | – | – | – | – | – | – | – | – | – | 0.007 |
| monoclonal antibody E16 | 99 | – | -303 | – | -177 | – | -38 | – | -415 | – |
